Residue numbers refer to the chain shown, from its start. Names and notes keep the numbering of the source.
B1: Id_ii_S4_P3E.4_K3.3_C3.2_[C-2G]_[T-1C]_H3.3_A3.1_F3.1_T3.2_[T9A]_[A10T] (ssRNA)
RNA: UUUGACAACUGAUCGUUCUUUCUGCACACUAUAAUUUCUUUCUCGAUCAGUUGUCUUU
B2: Id_ii_S4_P3E.3_K3.2_C3.2_H3.2_A3.1_F3.1_T3.2_[A10T] (ssRNA)
RNA: B1 RNA with G24C, C25U, A26U, C27A, A28U, C29A, A34U
B3: Id_ii_S4_P3E.3_K3.2_C3.2_[T-1C]_H3.2_A3.1_F3.1_T3.2_[A10G] (ssRNA)
RNA: B1 RNA with G24C, A26U, C27A, A28U, C29A, A34U, U35G
B4: Id_ii_S4_P3E.4_K3.3_C3.2_[C-2T]_[T-1C]_H3.3_A3.1_F3.1_T3.2_[A10T] (ssRNA)
RNA: B1 RNA with G24U, A34U
B5: Id_ii_S4_P3E.3_K3.2_C3.2_[T-1A]_H3.2_A3.1_F3.1_T3.2_[T9G]_[A10C] (ssRNA)
RNA: UUUGACAACUGAUCGUUCUUUCUCAUAUAUAUAGCUUCUUUCUCGAUCAGUUGUCUUU
B6: Id_ii_S4_P3E.3_K3.2_C3.2_[T-1C]_H3.2_A3.1_F3.1_T3.2_[T9C]_[A10T] (ssRNA)
RNA: B5 RNA with A25C, G34C, C35U
B7: Id_ii_S4_P3E.3_K3.2_C3.2_H3.2_A3.1_F3.1_T3.2_[A10C] (ssRNA)
RNA: B5 RNA with A25U, G34U
B8: Id_ii_S4_P3E.3_K3.2_C3.2_[T-1C]_H3.2_A3.1_F3.1_T3.2_[T9A]_[A10C] (ssRNA)
RNA: B5 RNA with A25C, G34A
B9: Id_ii_S4_P3E.3_K3.2_C3.2_[C-2A]_H3.2_A3.1_F3.1_T3.2 (ssRNA)
RNA: B5 RNA with C24A, A25U, G34U, C35A
B10: Id_ii_S4_P3E.3_K3.2_C3.2_[T-1C]_H3.2_A3.1_F3.1_T3.2_[T9C]_[A10C] (ssRNA)
RNA: B5 RNA with A25C, G34C
B11: Id_ii_S4_P3E.3_K3.2_C3.2_[T-1A]_H3.2_A3.1_F3.1_T3.2_[T9A] (ssRNA)
RNA: B5 RNA with G34A, C35A
B12: Id_ii_S4_P3E.4_K3.3_C3.2_[C-2T]_[T-1A]_H3.3_A3.1_F3.1_T3.2_[A10T] (ssRNA)
RNA: B1 RNA with G24U, C25A, A34U
B13: Id_ii_S4_P3E.3_K3.2_C3.2_[T-1C]_H3.2_A3.1_F3.1_T3.2_[T9G]_[A10T] (ssRNA)
RNA: B5 RNA with A25C, C35U
B14: Id_ii_S4_P3E.4_K3.3_C3.2_[C-2A]_H3.3_A3.1_F3.1_T3.2_[T9A]_[A10C] (ssRNA)
RNA: B1 RNA with G24A, C25U, U35C
B15: Id_ii_S4_P3E.4_K3.3_C3.2_[C-2A]_[T-1C]_H3.3_A3.1_F3.1_T3.2_[T9G]_[A10C] (ssRNA)
RNA: B1 RNA with G24A, A34G, U35C
B16: Id_ii_S4_P3E.4_K3.3_C3.2_[C-2G]_H3.3_A3.1_F3.1_T3.2_[T9C]_[A10C] (ssRNA)
RNA: B1 RNA with C25U, A34C, U35C
B17: Id_ii_S4_P3E.4_K3.3_C3.2_[C-2A]_[T-1A]_H3.3_A3.1_F3.1_T3.2_[T9C] (ssRNA)
RNA: B1 RNA with G24A, C25A, A34C, U35A
B18: Id_ii_S4_P3E.4_K3.3_C3.2_[C-2T]_H3.3_A3.1_F3.1_T3.2_[T9A]_[A10C] (ssRNA)
RNA: B1 RNA with G24U, C25U, U35C
B19: Id_ii_S4_P3E.4_K3.3_C3.2_[C-2T]_H3.3_A3.1_F3.1_T3.2_[A10T] (ssRNA)
RNA: B1 RNA with G24U, C25U, A34U
B20: Id_ii_S4_P3E.3_K3.2_C3.2_H3.2_A3.1_F3.1_T3.2_[A10G] (ssRNA)
RNA: B5 RNA with A25U, G34U, C35G
B21: Id_ii_S4_P3E.3_K3.2_C3.2_H3.2_A3.1_F3.1_T3.2_[T9C]_[A10C] (ssRNA)
RNA: B5 RNA with A25U, G34C
B22: Id_ii_S4_P3E.4_K3.3_C3.2_[T-1G]_H3.3_A3.1_F3.1_T3.2_[T9C]_[A10T] (ssRNA)
RNA: B1 RNA with G24C, C25G, A34C
B23: Ia_S1_P5E.1_K5.1_C5.1_H5.1_A5.1_[T6C]_F5.1_T5.1 (ssRNA)
RNA: UCUCUUUGUAUCAUUAUCUCUU
B24: Ib_S1_P5E.1_K5.1_C5.1_H5.1_[T1A]_A5.1_[A7T]_F5.1_T5.1 (ssRNA)
RNA: UCUCUUAGUAUUUUUAUCUCUU
B25: Ib_S1_P5E.1_K5.1_C5.1_H5.1_[G2C]_A5.1_[T5C]_F5.1_T5.1 (ssRNA)
RNA: UCUCUUUCUACUAUUAUCUCUU
B26: Ib_S1_P5E.1_K5.1_C5.1_H5.1_[G2T]_A5.1_[T5G]_F5.1_T5.1 (ssRNA)
RNA: UCUCUUUUUAGUAUUAUCUCUU
B27: Ib_S1_P5E.1_K5.1_C5.1_H5.1_[G2A]_A5.1_[T5G]_F5.1_T5.1 (ssRNA)
RNA: UCUCUUUAUAGUAUUAUCUCUU
B28: Ib_S1_P5E.1_K5.1_C5.1_H5.1_[G2C]_A5.1_[T5A]_F5.1_T5.1 (ssRNA)
RNA: UCUCUUUCUAAUAUUAUCUCUU
B29: Ib_S1_P5E.1_K5.1_C5.1_H5.1_[G2A]_A5.1_[T5C]_F5.1_T5.1 (ssRNA)
RNA: UCUCUUUAUACUAUUAUCUCUU

These binders were tested against T1, PUF4 RNA-binding domain (Saccharomyces cerevisiae, UniProt P25339 537-888) (assay: Mg; RNA-MaP; 20 mM Na-HEPES pH 7.4, 30 mM KOAc, 0.75 mM MgCl2, 0.1% Tween-20, 5% glycerol, 0.1 mg/mL BSA, 2 mM DTT; 25 C; 0.0125-409.6 nM protein). Conditions: tags: N-His6-TEV cleaved; C-SNAP kept, Cy3B-labelled; label: tethered on chip by stalled RNA polymerase.
T1 sequence: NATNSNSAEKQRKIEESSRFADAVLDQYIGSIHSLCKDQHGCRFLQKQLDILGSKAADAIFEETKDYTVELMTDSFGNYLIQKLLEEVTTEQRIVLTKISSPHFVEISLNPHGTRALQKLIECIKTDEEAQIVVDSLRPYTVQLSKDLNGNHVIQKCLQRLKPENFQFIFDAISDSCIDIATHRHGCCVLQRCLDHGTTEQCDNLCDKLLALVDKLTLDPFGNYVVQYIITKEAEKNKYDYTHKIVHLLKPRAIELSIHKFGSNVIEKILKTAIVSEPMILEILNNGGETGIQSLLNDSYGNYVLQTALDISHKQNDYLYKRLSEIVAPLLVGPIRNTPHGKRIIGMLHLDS

Row | Binder | Kd
1 | B1 | 60.5 nM
2 | B2 | 56.4 nM
3 | B3 | 126 nM
4 | B4 | 1430 nM
5 | B5 | 243 nM
6 | B6 | 92.9 nM
7 | B7 | 104 nM
8 | B8 | 467 nM
9 | B9 | 596 nM
10 | B10 | 244 nM
11 | B11 | 842 nM
12 | B12 | 1310 nM
13 | B13 | 392 nM
14 | B14 | 26.4 nM
15 | B15 | > 2300 nM
16 | B16 | 1.46 nM
17 | B17 | 496 nM
18 | B18 | 935 nM
19 | B19 | 946 nM
20 | B20 | 276 nM
21 | B21 | 190 nM
22 | B22 | > 2300 nM
23 | B23 | 6.62 nM
24 | B24 | 1470 nM
25 | B25 | > 2300 nM
26 | B26 | > 2300 nM
27 | B27 | 1360 nM
28 | B28 | > 2300 nM
29 | B29 | 330 nM

Source: article PMC9352680, “A comprehensive thermodynamic model for RNA binding by the Saccharomyces cerevisiae Pumilio protein PUF4”
